Data: IntAct's records for PubMed 24613396

B1: F-box only protein 11 (Homo sapiens), Q86XK2 (parent)
chain: MNSVRAANRRPRRVSRPRPVQQQQQQPPQQPPPQPPQQQPPQQQPPPPPQQQQQQQPPPPPPPPPPLPQERNNVGERDDDVPADMVAEESGPGAQNSPYQLRRKTLLPKRTACPTKNSMEGASTSTTENFGHRAKRARVSGKSQDLSAAPAEQYLQEKLPDEVVLKIFSYLLEQDLCRAACVCKRFSELANDPILWKRLYMEVFEYTRPMMHPEPGKFYQINPEEYEHPNPWKESFQQLYKGAHVKPGFAEHFYSNPARYKGRENMLYYDTIEDALGGVQEAHFDGLIFVHSGIYTDEWIYIESPITMIGAAPGKVADKVIIENTRDSTFVFMEGSEDAYVGYMTIRFNPDDKSAQHHNAHHCLEITVNCSPIIDHCIIRSTCTVGSAVCVSGQGACPTIKHCNISDCENVGLYITDHAQGIYEDNEISNNALAGIWVKNHGNPIIRRNHIHHGRDVGVFTFDHGMGYFESCNIHRNRIAGFEVKAYANPTVVRCEIHHGQTGGIYVHEKGRGQFIENKIYANNFAGVWITSNSDPTIRGNSIFNGNQGGVYIFGDGRGLIEGNDIYGNALAGIQIRTNSCPIVRHNKIHDGQHGGIYVHEKGQGVIEENEVYSNTLAGVWVTTGSTPVLRRNRIHSGKQVGVYFYDNGHGVLEDNDIYNHMYSGVQIRTGSNPKIRRNKIWGGQNGGILVYNSGLGCIEDNEIFDNAMAGVWIKTDSNPTLRRNKIHDGRDGGICIFNGGRGLLEENDIFRNAQAGVLISTNSHPILRKNRIFDGFAAGIEITNHATATLEGNQIFNNRFGGLFLASGVNVTMKDNKIMNNQDAIEKAVSRGQCLYKISSYTSYPMHDFYRCHTCNTTDRNAICVNCIKKCHQGHDVEFIRHDRFFCDCGAGTLSNPCTLAGEPTHDTDTLYDSAPPIESNTLQHN

Variants of: B1
Conditions: with prdm1_human PRDM1, O75626
prdm1_human PRDM1, O75626, sequence (O75626 whole entry): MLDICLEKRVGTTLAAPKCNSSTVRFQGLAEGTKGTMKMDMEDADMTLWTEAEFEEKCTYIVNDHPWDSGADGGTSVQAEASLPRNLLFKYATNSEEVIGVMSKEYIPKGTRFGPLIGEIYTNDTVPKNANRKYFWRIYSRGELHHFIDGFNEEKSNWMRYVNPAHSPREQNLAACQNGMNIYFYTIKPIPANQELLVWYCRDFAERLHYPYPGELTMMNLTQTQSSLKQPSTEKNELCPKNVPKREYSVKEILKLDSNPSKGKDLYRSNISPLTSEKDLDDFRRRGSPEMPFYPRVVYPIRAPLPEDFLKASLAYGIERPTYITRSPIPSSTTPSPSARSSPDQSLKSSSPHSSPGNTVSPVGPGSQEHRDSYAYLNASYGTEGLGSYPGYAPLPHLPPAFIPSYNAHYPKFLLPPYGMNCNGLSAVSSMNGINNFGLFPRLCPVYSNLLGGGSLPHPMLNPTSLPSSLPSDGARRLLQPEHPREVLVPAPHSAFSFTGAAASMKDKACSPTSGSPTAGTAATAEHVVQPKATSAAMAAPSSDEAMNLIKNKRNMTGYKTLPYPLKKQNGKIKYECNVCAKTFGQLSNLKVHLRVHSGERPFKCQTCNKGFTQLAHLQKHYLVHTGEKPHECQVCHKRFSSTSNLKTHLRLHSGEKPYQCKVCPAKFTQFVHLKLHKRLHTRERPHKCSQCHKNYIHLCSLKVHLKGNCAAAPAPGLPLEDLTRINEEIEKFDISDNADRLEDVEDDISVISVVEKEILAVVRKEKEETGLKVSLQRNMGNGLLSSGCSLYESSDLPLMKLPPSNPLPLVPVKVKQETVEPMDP

| Variant | effect of a mutation on the interaction |
| --- | --- |
| Q575L | disrupting interaction strength |
